Assay results as given in patent US11293031B2.

System: CN1CCC[C@H]1c1cccnc1
Experiment: cells, lysate or membranes named
Conditions: other: nicotine demethylase reaction, yeast microsomes, 25° C., pH 7.1, mean±standard error

How did the Km turn out when NtabCYP82E5v2 (Nicotiana tabacum) was run?
Its Km is 5.6 ± 1.4 µM.

And the Vmax?
The Vmax was 0.7±0.02 nmol min^−1 mg^−1 protein.
